T1: human IL-2Rα (Sino Biological) (human, UniProt P01589 22-213, limits assumed)
T1 construct: also called IL2RA; IL-2RA
T1 sequence: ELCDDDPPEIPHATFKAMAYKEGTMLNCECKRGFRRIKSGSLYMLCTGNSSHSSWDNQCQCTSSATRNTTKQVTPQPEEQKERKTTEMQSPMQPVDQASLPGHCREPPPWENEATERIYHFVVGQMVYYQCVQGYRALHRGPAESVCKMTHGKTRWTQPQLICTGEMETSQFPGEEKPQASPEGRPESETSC

T2: IL-4R (Sino Biological) (UniProt P24394 26-232)
T2 construct: also called IL-4Ra
T2 sequence (looked up): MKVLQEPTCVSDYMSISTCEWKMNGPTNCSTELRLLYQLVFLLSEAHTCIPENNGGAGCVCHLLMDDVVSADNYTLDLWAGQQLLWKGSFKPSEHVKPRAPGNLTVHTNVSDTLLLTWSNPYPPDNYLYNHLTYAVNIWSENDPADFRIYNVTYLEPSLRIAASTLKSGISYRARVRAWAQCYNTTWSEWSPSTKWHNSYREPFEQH

T3: IL-7R (Sino Biological) (UniProt P16871 21-239)
T3 sequence (looked up): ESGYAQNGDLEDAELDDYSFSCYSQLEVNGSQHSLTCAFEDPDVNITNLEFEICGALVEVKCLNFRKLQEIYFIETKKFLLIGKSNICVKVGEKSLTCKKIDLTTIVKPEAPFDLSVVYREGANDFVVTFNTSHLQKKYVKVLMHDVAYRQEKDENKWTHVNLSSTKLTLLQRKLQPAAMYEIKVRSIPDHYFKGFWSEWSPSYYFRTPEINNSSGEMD

T4: IL-9R (R&D Systems) (UniProt Q01113 41-270, limits assumed)
T4 sequence (looked up): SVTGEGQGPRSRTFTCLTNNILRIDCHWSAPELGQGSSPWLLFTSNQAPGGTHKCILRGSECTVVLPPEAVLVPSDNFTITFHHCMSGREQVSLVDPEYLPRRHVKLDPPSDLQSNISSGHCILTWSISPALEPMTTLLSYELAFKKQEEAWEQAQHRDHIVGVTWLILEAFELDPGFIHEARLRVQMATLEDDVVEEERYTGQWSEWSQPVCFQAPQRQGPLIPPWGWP

T5: human IL-2Rβγ receptor (IL-2RB / IL-2RG) on human T-cells (human, UniProt P14784 27-551; P31785 23-369)
T5 construct: also called IL2RB/IL2RG dimeric receptor complex
T5 sequence 1: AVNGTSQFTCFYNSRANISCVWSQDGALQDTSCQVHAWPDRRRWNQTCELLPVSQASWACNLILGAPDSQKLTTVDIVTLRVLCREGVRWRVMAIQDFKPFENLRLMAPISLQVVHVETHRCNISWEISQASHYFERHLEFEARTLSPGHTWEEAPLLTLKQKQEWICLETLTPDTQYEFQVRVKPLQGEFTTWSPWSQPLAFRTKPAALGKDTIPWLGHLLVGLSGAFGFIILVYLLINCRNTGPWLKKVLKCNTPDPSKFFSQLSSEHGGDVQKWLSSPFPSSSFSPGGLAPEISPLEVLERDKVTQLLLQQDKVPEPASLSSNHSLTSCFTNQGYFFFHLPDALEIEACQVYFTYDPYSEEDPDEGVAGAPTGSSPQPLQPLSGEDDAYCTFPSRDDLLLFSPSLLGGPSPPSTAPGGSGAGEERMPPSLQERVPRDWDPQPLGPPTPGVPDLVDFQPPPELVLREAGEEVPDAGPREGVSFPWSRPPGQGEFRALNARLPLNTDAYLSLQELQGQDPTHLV
T5 sequence 2: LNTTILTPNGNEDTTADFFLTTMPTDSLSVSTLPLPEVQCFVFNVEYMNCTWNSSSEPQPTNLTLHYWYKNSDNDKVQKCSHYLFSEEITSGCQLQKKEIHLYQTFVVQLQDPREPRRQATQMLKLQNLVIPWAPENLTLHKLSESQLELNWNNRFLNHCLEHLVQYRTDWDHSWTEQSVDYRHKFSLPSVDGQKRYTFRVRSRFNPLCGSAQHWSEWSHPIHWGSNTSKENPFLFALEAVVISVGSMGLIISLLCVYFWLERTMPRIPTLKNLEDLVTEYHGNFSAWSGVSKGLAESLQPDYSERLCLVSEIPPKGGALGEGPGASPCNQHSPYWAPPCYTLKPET

B1: IL2RB_F09G**IL2RG_F16B (bispecific antibody, human IgG4, V domains shown)
V domain 1: QVQLQESGPGLVKSSETLSLTCTVSGGSISSSDWWSWVRQPPGKGLEWIGEIDHSGSTNYNPSLMSRVTISVDKSKNQFSLKLSSVTAADTAVYFCARGSWELTDAFDIRGQGTLVTVSS
V domain 2: QVQLVESGGGLVKPGGSLRLSCAASGFTFSDYYMSWIRQAPGKGLEWVSYISSSGSTIYYADSVKGRFTISRDNAKNSLYLQMNSLRAEDTAVYYCARGDAVSITGDYRGQGTLVTVSS
notes: Bispecific heavy chain-only UniAb on silenced, stabilized human IgG4 Fc without CH1, knobs-into-holes; also called BsAb-2; not shown: C-terminal His-tag on the knob chain
B2: IL2RB_F09G**IL2RG_F18A (bispecific antibody, human IgG4, V domains shown)
V domain 1: B1 V domain 1
V domain 2: QVQLVESGGDLVKPGGSLRLSCAASGFTFSDYYMSWLRQAPGKELEWVSHISSSGTTTYYADSVEGRFTITRDNAKNSLYLQMNSLRAEDTAVYYCARGAAVAPGFDSRGQGTLVTVSS
notes: Bispecific heavy chain-only UniAb on silenced, stabilized human IgG4 Fc without CH1, knobs-into-holes; also called BsAb-4; not shown: C-terminal His-tag on the knob chain
B3: IL2RB_F18E**IL2RG_F16A (bispecific antibody, human IgG4, V domains shown)
V domain 1: QVQLVESGGGVVQPGRSLRLSCAASGFTFSSYGMHWVRQAPGKEREWVAVISYDGSNKYYTDSVKGRFTISRDNSKNTLYLEMNSLRAEDTAVYYCARDLDYDVLTGDPVGGFDIWGQGTLVTVSS
V domain 2: B1 V domain 2 with Y50S, S56D, K65Q, I70L, K76E, Y80F
notes: Bispecific heavy chain-only UniAb on silenced, stabilized human IgG4 Fc without CH1, knobs-into-holes; also called BsAb-6; not shown: C-terminal His-tag on the knob chain
B4: IL2RB_F09C**IL2RG_F16A (bispecific antibody, human IgG4, V domains shown)
V domain 1: B1 V domain 1 with S14P, E16G, T23A, A97G, T104S
V domain 2: B1 V domain 2 with Y50S, S56D, K65Q, I70L, K76E, Y80F
notes: Bispecific heavy chain-only UniAb on silenced, stabilized human IgG4 Fc without CH1, knobs-into-holes; also called BsAb-1; not shown: C-terminal His-tag on the knob chain
B5: IL2RB_F09K**IL2RG_F16B (bispecific antibody, human IgG4, V domains shown)
V domain 1: B1 V domain 1 with G8S, S14P, D33N, D53S, M65K, K82R, A97G
V domain 2: B1 V domain 2
notes: Bispecific heavy chain-only UniAb on silenced, stabilized human IgG4 Fc without CH1, knobs-into-holes; also called BsAb-5; not shown: C-terminal His-tag on the knob chain
B6: IL2RB_F09G**IL2RG_F16C (bispecific antibody, human IgG4, V domains shown)
V domain 1: B1 V domain 1
V domain 2: B1 V domain 2 with S30N, Y50H, I70V, K76N, N84H
notes: Bispecific heavy chain-only UniAb on silenced, stabilized human IgG4 Fc without CH1, knobs-into-holes; also called BsAb-3; not shown: C-terminal His-tag on the knob chain

Positions count from the first letter of the chain named.

The target in the first assay is IL-21R (Sino Biological) (UniProt Q9HBE5 20-232). Put plainly: Octet BLI off-rate analysis, antibody on AHC sensors. The method, then: (§1) All off-rate measurements were performed on an Octet Qk384 instrument (ForteBio), in 96-well microplates at 25° C. using anti-human IgG Fc capture (AHC, 18-5005) sensors with a shake speed of 1000 rpm. For off-rate determination, the antibodies were loaded on the AHC sensors at 5 µg/mL. Following a short baseline in kinetics buffer (0.02% Tween20, 0.1% BSA, 0.05% sodium azide, 1X PBS). Offrate measurements were done for the following: human IL-2Rβ (AcroBiosystems), human IL- 2Ry (Sino Biological), cynomolgus IL-2Rβ (Sino Biological), cynomolgus IL-2Rγ (expressed and purified in house using ExpiCHO expression system followed by Ni-NTA His-tag purification), mouse IL-2Rγ (Sino Biological), mouse IL-2Rβ (Sino Biological), human IL-2Rα (Sino Biological), IL-4R (Sino Biological), IL-7R (Sino Biological), IL-9R (R&D Systems) and IL-21R (Sino Biological). The following antibodies were used as positive controls to verify target binding and reagent quality: anti-human IL-9R (R&D Systems), anti-human IL-21R (R&D Systems), anti-human IL-7R (R&D Systems) and anti-human IL-4Ra (R&D Systems). The loaded sensors were then submerged in wells containing antigen at 100 nM concentration for association step. Dissociation was monitored in kinetics buffer. The capture surfaces were regenerated for 60 s. ForteBio data analysis software was used to fit the data to a 1:1 binding model to extract an association rate and dissociation rate.
IL-21R (Sino Biological), sequence (Q9HBE5 20-232 limits assumed): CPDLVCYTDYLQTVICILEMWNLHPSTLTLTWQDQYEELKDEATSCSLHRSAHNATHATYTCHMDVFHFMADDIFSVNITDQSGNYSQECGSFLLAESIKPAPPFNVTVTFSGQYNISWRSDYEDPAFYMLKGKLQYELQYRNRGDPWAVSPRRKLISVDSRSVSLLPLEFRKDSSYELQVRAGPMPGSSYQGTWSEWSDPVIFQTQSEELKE
On to B1, for which the binding result was “no binding (tested: 100 nM antigen)”.

Consider B2, for which the binding result is “no binding (tested: 100 nM antigen)”.

B3: the binding result is on record as “no binding (tested: 100 nM antigen)”.

Regarding B4, the binding result is “no binding (tested: 100 nM antigen)”.

B5: the binding result was “no binding (tested: 100 nM antigen)”.

As for B6, the binding result is recorded as “no binding (tested: 100 nM antigen)”.

The target of the next assay is T1, human IL-2Rα (Sino Biological). Described as above. As for the experimental part:
as §1
In the case of B1, the binding result is “no binding (tested: 100 nM antigen)”.

Regarding B2, the binding result was “no binding (tested: 100 nM antigen)”.

Regarding B3, the binding result is “no binding (tested: 100 nM antigen)”.

As for B4, the binding result is given as “no binding (tested: 100 nM antigen)”.

Consider B5, for which the binding result is “no binding (tested: 100 nM antigen)”.

Regarding B6, the binding result is given as “no binding (tested: 100 nM antigen)”.

A further assay concerns the target T2, IL-4R (Sino Biological). Described as above. As for the experimental part: as §1
As to B1, the binding result is recorded as “no binding (tested: 100 nM antigen)”.

As for B2, the binding result was “no binding (tested: 100 nM antigen)”.

For B3, the binding result is on record as “no binding (tested: 100 nM antigen)”.

In the case of B4, the binding result is reported as “no binding (tested: 100 nM antigen)”.

Take B5: the binding result is listed as “no binding (tested: 100 nM antigen)”.

On to B6, for which the binding result is given as “no binding (tested: 100 nM antigen)”.

A further assay concerns the target T3, IL-7R (Sino Biological). The assay is described as above. As for the experimental part:
as §1
As to B1, the binding result is recorded as “no binding (tested: 100 nM antigen)”.

For B2, the binding result is on record as “no binding (tested: 100 nM antigen)”.

With B3, the binding result is reported as “no binding (tested: 100 nM antigen)”.

Consider B4, for which the binding result is listed as “no binding (tested: 100 nM antigen)”.

As for B5, the binding result is “no binding (tested: 100 nM antigen)”.

B6: the binding result is reported as “no binding (tested: 100 nM antigen)”.

The next assay deals with T4, IL-9R (R&D Systems). Described as above. As for the experimental part:
as §1
Consider B1, for which the binding result is given as “no binding (tested: 100 nM antigen)”.

Regarding B2, the binding result is “no binding (tested: 100 nM antigen)”.

Regarding B3, the binding result is “no binding (tested: 100 nM antigen)”.

In the case of B4, the binding result is listed as “no binding (tested: 100 nM antigen)”.

B5: the binding result is “no binding (tested: 100 nM antigen)”.

In the case of B6, the binding result is given as “no binding (tested: 100 nM antigen)”.

Another assay deals with T5, human IL-2Rβγ receptor (IL-2RB / …). Put plainly: flow cytometry, human CD4+ T-cells, anti-human IgG-PE detection, gMFI as fold over secondary-only background. The method, then:
(§2) All washes and dilutions of cells, antibodies, and reagents were performed using flow buffer (1X PBS, 1% BSA, 0.1% NaN3, pH 7.4). Staining was performed in a round-bottom 96-well plate (Corning) seeded at 100,000 cells/well and all incubations were performed at 4° C. or on ice. […] The cells were washed twice with 200 µL flow buffer. The cells were then incubated for 30 minutes with detection antibody (Goat F(ab′)2 Anti-Human IgG-PE, Southern Biotech) at 0.625 µg/mL in flow buffer. Following 2 more washes, the cells were resuspended in a final volume of 150 µL of flow buffer. The cells were analyzed on a BD FACSCelesta or a Guava easyCyte 8-HT flow cytometer. At least 3000 events were collected, and PE geometric mean fluorescence intensity was plotted as a fold over background (cells incubated with secondary detection antibody only). In some secondary screens involving human or cynomolgus PBMCs, an additional CD4 antibody (BioLegend) and/or CD8 antibody (BioLegend) was included to further characterize cell binding.
(In general: Flow cytometry measures light scatter and fluorescence of single cells or particles in a stream.)
Usually EC50 (read off the curve) stands for the midpoint of the concentration-response curve. A higher EC50 (read off the curve) goes with lower potency in that assay. Turning to B1, the “EC50 (read off the curve)” value is around 5 nM.

Turning to B4, the “EC50 (read off the curve)” value is around 5 nM.

B6: the “EC50 (read off the curve)” value is around 6 nM.

A further assay shares this target. As to the kind of experiment: flow cytometry, human CD8+ T-cells, anti-human IgG-PE detection, gMFI as fold over secondary-only background. As for the experimental part:
as §2
Take B6: the “EC50 (read off the curve)” value was around 6 nM.

For another assay, the target named is cynomolgus IL-2Rβγ receptor (IL-2RB / IL-2RG) on cynomolgus T-cells (cynomolgus, UniProt Q38J85 27-551). Put plainly: flow cytometry, cynomolgus CD8+ T-cells, anti-human IgG-PE detection, gMFI as fold over secondary-only background. The method, then: as §2
cynomolgus IL-2Rβγ receptor (IL-2RB / IL-2RG) on cynomolgus T-cells, sequence (Q38J85 27-551): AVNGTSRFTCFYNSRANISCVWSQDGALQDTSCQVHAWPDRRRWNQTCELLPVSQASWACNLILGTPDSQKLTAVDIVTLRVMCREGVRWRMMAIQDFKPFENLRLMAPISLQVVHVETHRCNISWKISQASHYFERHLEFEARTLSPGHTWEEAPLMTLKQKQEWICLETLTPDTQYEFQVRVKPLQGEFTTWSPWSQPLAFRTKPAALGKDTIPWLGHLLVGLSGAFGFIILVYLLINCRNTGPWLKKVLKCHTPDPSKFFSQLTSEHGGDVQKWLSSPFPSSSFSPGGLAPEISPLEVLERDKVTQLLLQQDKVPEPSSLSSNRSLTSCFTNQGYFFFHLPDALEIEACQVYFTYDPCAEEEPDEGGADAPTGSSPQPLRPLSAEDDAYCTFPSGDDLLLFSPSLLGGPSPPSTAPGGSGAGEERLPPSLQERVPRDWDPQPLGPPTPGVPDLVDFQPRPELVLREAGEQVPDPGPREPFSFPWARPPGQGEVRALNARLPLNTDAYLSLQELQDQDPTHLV
For B5, the “EC50 (read off the curve)” value was around 5 nM.

(Values after patent US20230242653A1 (TENEOBIO, published 2023).)
